Source: patent US20090005257A1

Tests used:
[1] = biological target: protein A (UniProt P38507); test: phage ELISA on protein A, heated 80 C against unheated, three data points
[2] = biological target: protein A (UniProt P38507); test: phage ELISA screen on protein A, heated 80 C against unheated (Section 4); mean of clones with this mutation

Chain of DP47 F100nV (VH): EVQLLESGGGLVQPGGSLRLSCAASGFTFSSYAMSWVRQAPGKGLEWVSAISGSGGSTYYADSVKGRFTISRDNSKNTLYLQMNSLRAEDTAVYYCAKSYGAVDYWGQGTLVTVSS

## DP47 F100nV
[1]
  Refoldability on phage (protein A binding retained after heating): 2%

## DP47 F100nV/Y102S
[1]
  Refoldability on phage (protein A binding retained after heating): 2%

## DP47-F27C
[2]
  mean % refolding (pA-ELISA): 56%

## DP47-G54P
[2]
  mean % refolding (pA-ELISA): 28%
